{
  "source": "patent US5831051",
  "about": "“Receptor for peptide hormones involved in energy homeostasis, and method and compositions for use thereof” (The Rockefeller University, dated 1998)",
  "key": {"[1]": {"target": "T1, recombinant human PACAP/VIP R-2 receptor (human)", "T1 chain": "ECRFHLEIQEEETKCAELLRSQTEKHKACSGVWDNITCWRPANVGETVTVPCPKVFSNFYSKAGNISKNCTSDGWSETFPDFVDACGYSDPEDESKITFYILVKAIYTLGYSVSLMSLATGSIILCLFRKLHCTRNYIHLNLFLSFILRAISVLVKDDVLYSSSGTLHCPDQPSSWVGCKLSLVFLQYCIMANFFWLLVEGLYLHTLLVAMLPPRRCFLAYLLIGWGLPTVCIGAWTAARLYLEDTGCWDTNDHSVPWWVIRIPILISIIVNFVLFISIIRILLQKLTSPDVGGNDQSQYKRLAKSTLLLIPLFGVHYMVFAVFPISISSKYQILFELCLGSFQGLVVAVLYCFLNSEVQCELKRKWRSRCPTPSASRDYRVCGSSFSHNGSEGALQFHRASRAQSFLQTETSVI", "test": "competitive displacement of 125I-VIP on intact CHL cells expressing the receptor", "method for binding result": "(§1) Each peptide concentration prepared in Hank's balanced salt solution containing 20 mM HEPES, pH 7.4, 0.5% BSA and 0.1 mM phenylmethylsulfonyl-fluoride (PMSF) was added in triplicates to intact cells. Following the incubation, the cells were washed two times with ice-cold PBS, lysed with 1N NaOH, and radioactivity measured in gamma counter."}, "[2]": {"target": "T1, recombinant human PACAP/VIP R-2 receptor", "test": "competitive displacement of 125I-PACAP-27 (44 pM) on intact CHL cells expressing the receptor", "method": "as §1"}, "[3]": {"target": "T1, recombinant human PACAP/VIP R-2 receptor", "test": "competitive displacement of 125I-VIP (44 pM) on intact CHL cells expressing the receptor; complete displacement not obtainable", "method": "as §1\n(§2) To further confirm the identity of the receptor, the cDNA was expressed in a chinese hamster lung (CHL) cell line."}, "[4]": {"target": "T1, recombinant human PACAP/VIP R-2 receptor", "test": "competitive displacement of 125I-VIP on intact CHL cells expressing the receptor; complete displacement not obtainable", "method": "as §1"}, "[5]": {"target": "T1, recombinant human PACAP/VIP R-2 receptor", "test": "competitive displacement of 125I-VIP (44 pM) on intact CHL cells expressing the receptor", "method": "as §1, §2"}},
  "note": "Where no end group is shown, it is not given here.",
  "data": [
    {"molecule": "secretin (ligand)", "values": [
      {"measurement": "concentration at which 125I-VIP binding was displaced", "setting": "[1]", "value": 3.8, "unit": "µM"}
    ]},
    {"molecule": "HAEGTFTSDVSSYLEGQAAKEFIAWLVKGR (ligand)", "note": "[glucagon-like peptide-I (GLP-1)]", "values": [
      {"measurement": "binding result", "setting": "[1]", "value": "no binding"}
    ]},
    {"molecule": "HADGSFSDEMNTILDNLAARDFINWLIQTKITD (ligand)", "note": "[glucagon-like peptide-II (GLP-II)]", "values": [
      {"measurement": "binding result", "setting": "[1]", "value": "no binding"}
    ]},
    {"molecule": "HSDAVFTDNYTRLRKQMAVKKYLNSILN (ligand)", "note": "[vasoactive intestinal polypeptide (VIP)]", "values": [
      {"measurement": "IC50", "setting": "[2]", "value": "~9", "unit": "nM"},
      {"measurement": "IC50", "setting": "[3]", "value": "~5.8", "unit": "nM"}
    ]},
    {"molecule": "HSDGIFTDSYSRYRKQMAVKKYLAAVL (ligand, ends and bridges not checked)", "note": "[PACAP-27 (pituitary adenylate cyclase activating polypeptide, 27-amino acid peptide)]", "values": [
      {"measurement": "IC50", "setting": "[4]", "value": "~37", "unit": "nM"}
    ]},
    {"molecule": "HSDGIFTDSYSRYRKQMAVKKYLAAVLGKRYKQRVKNK (ligand, ends and bridges not checked)", "note": "[PACAP-38 (pituitary adenylate cyclase activating polypeptide, 38-amino acid peptide)]", "values": [
      {"measurement": "IC50", "setting": "[5]", "value": 1.8, "unit": "nM"},
      {"measurement": "IC50", "setting": "[2]", "value": 4.1, "unit": "nM"}
    ]}
  ]
}
